Results: patent EP4653467A1 (Wuhan Zhaozhi Biotechnology Co., Ltd., dated 2025)

Target: T1, CD22 on RAJI cells (UniProt P20273 20-847, limits assumed)
T1 sequence (looked up): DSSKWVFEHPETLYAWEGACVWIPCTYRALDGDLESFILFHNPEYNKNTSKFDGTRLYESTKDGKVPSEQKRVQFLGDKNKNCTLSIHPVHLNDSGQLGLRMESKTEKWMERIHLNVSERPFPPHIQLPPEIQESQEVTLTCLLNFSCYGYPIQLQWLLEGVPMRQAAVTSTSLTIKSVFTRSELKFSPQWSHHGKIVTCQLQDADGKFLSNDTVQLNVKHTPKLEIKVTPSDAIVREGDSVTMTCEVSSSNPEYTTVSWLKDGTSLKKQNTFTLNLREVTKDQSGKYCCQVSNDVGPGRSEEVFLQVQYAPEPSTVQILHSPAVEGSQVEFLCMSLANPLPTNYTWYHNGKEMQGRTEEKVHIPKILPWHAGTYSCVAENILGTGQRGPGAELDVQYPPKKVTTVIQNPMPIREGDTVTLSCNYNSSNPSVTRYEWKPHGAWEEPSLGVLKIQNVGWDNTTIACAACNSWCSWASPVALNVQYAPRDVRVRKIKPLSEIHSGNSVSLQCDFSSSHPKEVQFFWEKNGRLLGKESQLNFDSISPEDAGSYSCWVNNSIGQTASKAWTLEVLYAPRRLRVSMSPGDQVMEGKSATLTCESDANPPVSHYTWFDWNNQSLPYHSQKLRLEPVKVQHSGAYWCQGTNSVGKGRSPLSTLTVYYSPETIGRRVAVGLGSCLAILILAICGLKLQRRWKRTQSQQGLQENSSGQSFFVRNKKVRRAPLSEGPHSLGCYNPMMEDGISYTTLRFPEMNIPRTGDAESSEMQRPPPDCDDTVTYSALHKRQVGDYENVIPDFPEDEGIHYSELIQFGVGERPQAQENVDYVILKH
Assay: cell-based or functional assay

B1: CAR22 (CAR molecule targeting CD22) (other)
chain: MALPVTALLLPLALLLHAAIPDTEVQLVESGGGLVKPGGSLKLSCAASGFAFSIYDMSWVRQTPEKRLEWVAYISSGGGTYYPDTVKGRFTISRDNAKNTLYLQMSSLKSEDTAMYYCARHSGYGTHWGVLFAYWGQGTLVTVSAGGGGSGGGGSGGGGSDIQMTQTTSSLSASLGDRVTISCRASQDISNYLNWYQQKPDGTVKLLIYYTSILHSGVPSRFSGSGSGTDYSLTISNLEQEDFATYFCQQGNTLPWTFGGGTKLEIKATTTPAPRPPTPAPTIASQPLSLRPEACRPAAGGAVHTRGLDFACDFWVLVVVGGVLACYSLLVTVAFIIFWVRSKRSRLLHSDYMNMTPRRPGPTRKHYQPYAPPRDFAAYRSKRGRKKLLYIFKQPFMRPVQTTQEEDGCSCRFPEEEEGGCELRVKFSRSADAPAYQQGQNQLYNELNLGRREEYDVLDKRRGRDPEMGGKPRRKNPQEGLYNELQKDKMAEAYSEIGMKGERRRGKGHDGLYQGLSTATKDTYDALHMQALPPR
target cell lysis (calcein release), CAR-T cells on RAJI positive target cells, effector-to-target ratio 2:1: 11.5%
target cell lysis (calcein release), CAR-T cells on RAJI positive target cells, effector-to-target ratio 10:1: 46.9%
target cell lysis (calcein release), CAR-T cells on RAJI positive target cells, effector-to-target ratio 50:1: 94.4%
